Experimental data from patent EP1787997A1 (Genetics Institute, LLC, dated 2007).
Blank lines part the entries; values can stand above or below the binder they belong to.

Experiments:
[1] = target: T1, murine MU-1 Ig fusion protein (murine, UniProt Q9JHX3 20-236); test: Biacore, MU-1 Ig fusion immobilized on chip
T1 construct: It includes the predicted leader 1-19, the transmembrane domain 237-253 and the cytoplasmic domain; Immobilized on a Biacore chip; not shown: Ig part of the fusion

[2] = target: T2, human MU-1 Ig fusion protein (human, UniProt Q9HBE5 20-235); test: Biacore, MU-1 Ig fusion immobilized on chip
T2 construct: A soluble fusion would most likely hold only the extracellular part; Immobilized on a Biacore chip; not shown: Ig part of the fusion
T2 sequence (Q9HBE5 20-235): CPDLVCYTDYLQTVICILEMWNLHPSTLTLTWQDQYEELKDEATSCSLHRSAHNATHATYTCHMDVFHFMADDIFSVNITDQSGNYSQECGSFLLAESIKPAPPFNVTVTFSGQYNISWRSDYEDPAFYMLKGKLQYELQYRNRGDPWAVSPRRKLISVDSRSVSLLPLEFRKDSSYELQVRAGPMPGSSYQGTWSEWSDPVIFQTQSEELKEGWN

binding result [1]: no binding | binding result [2]: no binding
B1: mIL-2 (ligand, mouse, UniProt P04351 21-169, looked up)
chain: APTSSSTSSSTAEAQQQQQQQQQQQQHLEQLLMDLQELLSRMENYRNLKLPRMLTFKFYLPKQATELKDLQCLEDELGPLRHVLDLTQSKSFQLEDAENFISNIRVTVVKLKGSDNTFECQFDDESATVVDFLRRWIAFCQSIISTSPQ

binding result [1]: no binding | binding result [2]: no binding
B2: mIL-7 (ligand, mouse, UniProt P10168 26-154, looked up)
chain: ECHIKDKEGKAYESVLMISIDELDKMTGTDSNCPNNEPNFFRKHVCDDTKEAAFLNRAARKLKQFLKMNISEEFNVHLLTVSQGTQTLVNCTSKEEKNVKEQKKNDACFLKRLLREIKTCWNKILKGSI
